Measurements published in US20150056222A1 (Regeneron, published 2015).

B1: H1H6785P (antibody, human IgG1, V domains shown)
VH: EVQLVESGGGLVQPGGSLRLSCAASGFTFSSYEMNWVRQAPGKGLEWISYISSRGGTIYYADSIKGRFTIYRDNARNSLYLQMNSLRAEDTAIYYCARLSGVDIFDIWGQGTMVTVSS
VL: DIQMTQSPSSLSASVGDRVTITCRASQGISNYLAWYQQKPGKVPKLLIYFASTLQSGVPSRFSGGGSGTDFTLTISSLQPEDVATYYCQRYNSAPLTFGGGTKVEIK
notes: human IgG1 Fc (H1H)
B2: H1H6976N (antibody, human IgG1, V domains shown)
VH: EVQLLESGGGFVQPGGSLRLSCAASGFTFSSYAMSWVRQAPGKGLEWVSIISSNGRYTYYADSVKGRFTISRDNSKNTLYLQMNSLRAEDTAVYYCATVTGDWFDPWGQGTLVTVSS
VL: DIQLTQSPSFLSASVGDRVTITCWASQDIDISLAWYQQKPGKAPKLLIYAASTLQSGVPSKFSGSGSGTDFTLTISSLQPEDFSTYYCQQLNSYPITFGQGTRLDIK
notes: also called H2M6976N
B3: H1H6958N2 (antibody, human IgG1, V domains shown)
VH: QVQLVESGGGVVQPGRSLRLSCGASGFTFRNYGMQWVRQGPGKGLEWVTLISFDGNDKYYADSVKGRFTISRDNSKNTLFLQMNSLRTEDTAVYYCARGGDFDYWGQGTLVTVSS
VL: DIQMTQSPSSLSASVGDRVTITCRASQDIRKDLGWYQQKPGKAPKRLIYAASSLHSGVPSRFSGSGSGTEFTLTISSLQPEDFATYYCLQHNSYPMYTFGQGTKLEIK
notes: also called H2M6958N2
B4: H1H6782P (antibody, human IgG1, V domains shown)
VH: EVQLVESGGGLVQPGRSLRLSCAASGFTFDDYAMHWVRQAPGKGLEWVSGIIWNSGHIGYGDSVKGRFTISRDNAKKSLYLQMNSLRAEDTALYYCARDSGRYQSYFDYWGQGTLVTVSS
VL: DIQMTQSPSTLSASVGDRVTITCRASHIISSWLAWYQQKPGKAPKVLIFKASSLESGVPSRFSGSGSGTEFTLTISSLQPDDFATYYCQQYNTYSRTFGQGTKVEIK
notes: human IgG1 Fc (H1H)
B5: H1H6793P (antibody, human IgG1, V domains shown)
VH: EVQLVESGGGLVQPGGSLRLSCAASGFSFSIYAMSWFRQAPGKGLEWVSAINGRGDGTHYADSVKGRFTISRDNSKTTLYLQMSSLRAEDTAVYYCAKPVMSTNGFDIWGQGTMVTVSS
VL: DIQMTQSPSTLSASVGDRVTITCRASQSISSWLAWYQLKPGKAPKLLIYKASNLESGVPSRFSGSGSGTEFTLTISSLQPDDFATYYCQQYNIYWTFGQGTKVEIK
notes: human IgG1 Fc (H1H)
B6: H1H6765P (antibody, human IgG1, V domains shown)
VH: EVQLVESGGGVVRPGGSLRLSCVGSGFSFDDHGMNWVRQGPGKGLEWVSGFNWNGGSTNYAESVKGRFTISRDNARNSLFLQMNSLRAEDTALYYCVRGRSGWFNDAFDVWGPGTMVTVSS
VL: EIVLTQSPGTLSLSPGERATLSCRASQTINSNYLAWYRQKPGQTPRLLIYGTSSRATGIPDRFSGSGSGTDFSLTISRLEPEDFAVFYCQQYAGLPTFGPGTKVDIK
notes: human IgG1 Fc (H1H)

Assays:
[1] = target: T1, hPRLR.mmh (soluble monomeric human PRLR) (human); assay: SPR, 37C, mAb capture
T1 construct: soluble monomeric construct
T1 chain: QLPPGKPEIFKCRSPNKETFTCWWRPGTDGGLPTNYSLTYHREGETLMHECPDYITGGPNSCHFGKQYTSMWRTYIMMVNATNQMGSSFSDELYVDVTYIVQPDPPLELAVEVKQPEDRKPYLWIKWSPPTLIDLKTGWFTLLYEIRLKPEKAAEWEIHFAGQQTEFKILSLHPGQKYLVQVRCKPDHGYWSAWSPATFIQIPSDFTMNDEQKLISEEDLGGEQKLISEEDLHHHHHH
Method: (§1) Measurements were conducted on a T200 Biacore instrument. Kinetic association (kₐ) and dissociation (kd) rate constants were determined by processing and fitting the data to a 1:1 binding model using Scrubber 2.0 curve fitting software. Binding dissociation equilibrium constants (KD) and dissociative half-lives (t_{1/2}) were calculated from the kinetic rate constants as: KD (M)=kd/kₐ; and […].

[2] = target: T2, hPRLR.mFc (soluble dimeric human PRLR) (human); assay: SPR, 37C, mAb capture
T2 construct: dimeric construct
T2 chain: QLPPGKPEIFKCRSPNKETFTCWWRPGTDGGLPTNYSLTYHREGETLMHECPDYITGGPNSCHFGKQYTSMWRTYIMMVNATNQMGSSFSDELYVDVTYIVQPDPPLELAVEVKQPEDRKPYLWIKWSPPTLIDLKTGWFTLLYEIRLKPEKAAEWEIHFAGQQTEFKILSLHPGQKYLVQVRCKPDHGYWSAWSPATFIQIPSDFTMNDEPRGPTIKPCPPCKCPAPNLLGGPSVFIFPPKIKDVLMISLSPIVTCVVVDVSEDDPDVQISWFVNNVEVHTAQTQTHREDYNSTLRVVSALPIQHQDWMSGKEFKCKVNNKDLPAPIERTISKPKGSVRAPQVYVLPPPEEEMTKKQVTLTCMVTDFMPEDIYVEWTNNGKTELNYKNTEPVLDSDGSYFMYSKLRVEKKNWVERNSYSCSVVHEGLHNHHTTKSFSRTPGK
Method: as §1

[3] = target: T3, mfPRLR.mmh (soluble monomeric macaca fascicularis PRLR) (macaca fascicularis); assay: SPR, 37C, mAb capture
T3 construct: soluble monomeric construct; also called macaca fascicularis (mf) PRLR.mmh
T3 chain: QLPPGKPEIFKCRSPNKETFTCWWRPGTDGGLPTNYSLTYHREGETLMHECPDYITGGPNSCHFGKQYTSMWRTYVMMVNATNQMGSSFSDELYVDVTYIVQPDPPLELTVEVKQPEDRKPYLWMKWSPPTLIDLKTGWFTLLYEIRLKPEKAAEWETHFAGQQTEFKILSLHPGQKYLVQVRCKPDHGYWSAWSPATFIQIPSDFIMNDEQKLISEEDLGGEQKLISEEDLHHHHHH
Method: as §1

[4] = target: T4, human prolactin receptor (PRLR) on cells (human, UniProt P16471 25-622); assay: cell-based or functional assay
T4 sequence: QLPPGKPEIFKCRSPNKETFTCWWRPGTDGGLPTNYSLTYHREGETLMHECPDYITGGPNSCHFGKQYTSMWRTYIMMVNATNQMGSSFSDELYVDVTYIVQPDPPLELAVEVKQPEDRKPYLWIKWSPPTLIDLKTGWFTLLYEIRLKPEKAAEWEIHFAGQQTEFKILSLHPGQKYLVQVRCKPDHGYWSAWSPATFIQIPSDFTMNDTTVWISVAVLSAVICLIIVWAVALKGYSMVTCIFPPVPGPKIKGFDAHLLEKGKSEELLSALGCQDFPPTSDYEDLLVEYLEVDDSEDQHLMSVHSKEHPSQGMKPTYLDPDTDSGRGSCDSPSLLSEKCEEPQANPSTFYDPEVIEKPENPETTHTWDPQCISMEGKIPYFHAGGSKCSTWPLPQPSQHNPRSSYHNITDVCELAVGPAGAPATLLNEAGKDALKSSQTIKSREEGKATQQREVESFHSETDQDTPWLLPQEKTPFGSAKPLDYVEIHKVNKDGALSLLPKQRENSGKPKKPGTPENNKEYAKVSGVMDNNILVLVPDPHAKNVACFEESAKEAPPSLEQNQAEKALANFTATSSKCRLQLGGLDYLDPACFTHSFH

[5] = target: T4, human prolactin receptor (PRLR) on cells; assay: FACS, HEK293/hPRLR cells; further: test concentration or dose not given here
[6] = target: T5, mouse PRLR on HEK293 cells (mouse, UniProt Q08501 20-608); assay: FACS, HEK293/mPRLR cells; further: test concentration or dose not given here
T5 construct: whole, on cells; also called mPRLR; HEK293/mPRLR
T5 sequence (looked up): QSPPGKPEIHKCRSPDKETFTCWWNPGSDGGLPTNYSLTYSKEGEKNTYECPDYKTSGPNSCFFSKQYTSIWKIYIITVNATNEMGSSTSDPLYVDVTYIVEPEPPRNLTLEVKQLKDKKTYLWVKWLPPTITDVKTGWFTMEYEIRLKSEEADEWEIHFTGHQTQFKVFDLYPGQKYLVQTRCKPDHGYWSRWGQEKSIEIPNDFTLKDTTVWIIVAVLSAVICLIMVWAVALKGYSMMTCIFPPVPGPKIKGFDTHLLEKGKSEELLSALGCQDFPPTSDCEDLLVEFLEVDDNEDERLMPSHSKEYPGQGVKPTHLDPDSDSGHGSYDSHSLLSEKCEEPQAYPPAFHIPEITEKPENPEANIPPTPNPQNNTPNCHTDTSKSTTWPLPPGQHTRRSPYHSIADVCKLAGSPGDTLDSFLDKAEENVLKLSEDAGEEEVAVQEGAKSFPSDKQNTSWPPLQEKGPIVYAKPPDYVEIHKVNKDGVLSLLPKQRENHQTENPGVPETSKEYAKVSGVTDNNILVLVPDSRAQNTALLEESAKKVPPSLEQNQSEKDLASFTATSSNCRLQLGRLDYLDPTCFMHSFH

[7] = target: T6, monkey (macaca fascicularis) PRLR on HEK293 cells (macaca fascicularis, UniProt A0A2K5WXK1 25-619); assay: FACS, HEK293/mfPRLR cells; further: test concentration or dose not given here
T6 construct: also called mfPRLR; HEK293/mfPRLR
T6 sequence: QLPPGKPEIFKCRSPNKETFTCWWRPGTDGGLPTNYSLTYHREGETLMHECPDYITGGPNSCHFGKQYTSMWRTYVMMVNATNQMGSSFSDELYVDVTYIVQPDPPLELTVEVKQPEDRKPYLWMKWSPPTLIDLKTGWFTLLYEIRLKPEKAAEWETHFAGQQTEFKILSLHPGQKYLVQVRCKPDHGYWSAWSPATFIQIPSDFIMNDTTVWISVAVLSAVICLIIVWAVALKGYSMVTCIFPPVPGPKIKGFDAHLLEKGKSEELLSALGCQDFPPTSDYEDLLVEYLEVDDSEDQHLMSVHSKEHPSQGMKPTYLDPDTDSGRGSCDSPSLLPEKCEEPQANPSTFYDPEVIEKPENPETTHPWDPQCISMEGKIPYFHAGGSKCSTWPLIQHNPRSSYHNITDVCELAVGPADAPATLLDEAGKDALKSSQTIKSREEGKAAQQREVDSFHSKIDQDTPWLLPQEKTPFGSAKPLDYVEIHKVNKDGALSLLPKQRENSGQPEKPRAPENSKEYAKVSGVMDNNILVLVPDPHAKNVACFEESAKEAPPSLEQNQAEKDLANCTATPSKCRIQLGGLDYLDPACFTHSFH

[8] = target: T4, human prolactin receptor (PRLR) on cells; assay: FACS, T47D cells (native PRLR); further: test concentration or dose not given here

Row | Binder | T½ [1] [min] | T½ [2] [min] | T½ [3] [min] | % Internalization relative to Control I (alexa488 intensity in intracellular vesicles at 37 C, T47D cells) [4] [%] | FACS Cell Binding (Fold Above Background) [5] [fold above background] | FACS Cell Binding (Fold Above Background) [6] [fold above background] | FACS Cell Binding (Fold Above Background) [7] [fold above background] | FACS Cell Binding (Fold Above Background) [8] [fold above background]
1 | B1 | 24 | 99 | 26 | 169 | 37 | 2 | 26 | 40
2 | B2 | 3.7 | 82.6 | 3.7 | 170 | 8 | 1 | 29 | 37
3 | B3 | 8.8 | 83.3 | 8.6 | 169 | 35 | 1 | 30 | 37
4 | B4 | 16 | 89 | 15 | 179 | 41 | 4 | 32 | 43
5 | B5 | 11 | 81 | 11 | 180 | 2 | 2 | 32 | 43
6 | B6 | 32 | 112 | 215 | 186 | 38 | 1 | 27 | 40
